Measured values: US20240368309A1 (Hoffmann-La Roche, published 2024)

Molecular target: T1, biotinylated monovalent EpCAM-Fc (human EpCAM ECD-Fc knob avi-his paired with Fc hole) (human, UniProt P01857 104-328 = IgG part, biotin on the avi tag (BirA co-expression))
T1 construct: also called monovalent EpCAM-Fc construct; huEPCAM-Fc-knob (avi-His) + Fc hole (wt)
Assay: SPR ProteOn XPR36 off-rate, biotinylated monovalent EpCAM-Fc on NLC chip, 50 nM supernatant

Binder | koff [s⁻¹]
Monovalent EpCAM (GG01_VH x GG01_VL) (antibody, IgG1, V domains shown, one-armed hu IgG1 PG-LALA, VH/VL-crossed Fab on Fc hole plus empty Fc knob; from supernatant) VH: QVQLVQSGSELKKPGASVKVSCKASGYTFTNYGMNWVRQAPGQGLEWMGWINTYTGESTYAQGFTGRFVFSLDTSVSTAYLQISSLKAEDTAVYFCARFAIKGDYWGQGTLVTVSS VL: DIVMTQSPLSLPVTPGEPASISCRSSQSLLHSNGITYLYWYLQKPGQSPQLLIYQMSNRASGVPDRFSGSGSGTDFTLKISRVEAEDVGVYYCAQNLEIPRTFGQGTKLEIK | 0.00438
Monovalent EpCAM (GG06_VH x GG01_VL) (antibody, IgG1, V domains shown, one-armed hu IgG1 PG-LALA, VH/VL-crossed Fab on Fc hole plus empty Fc knob; from supernatant) VH: QVQLVQSGSELKKPGASVKVSCKASGYTFTNYGMNWVRQAPGQGLEWMGWINTYTGQSTYAQGFTGRFVFSLDTSVSTAYLQISSLKAEDTAVYFCARFAIKGDYWGQGTLVTVSS VL: DIVMTQSPLSLPVTPGEPASISCRSSQSLLHSNGITYLYWYLQKPGQSPQLLIYQMSNRASGVPDRFSGSGSGTDFTLKISRVEAEDVGVYYCAQNLEIPRTFGQGTKLEIK | 0.00343
Monovalent EpCAM (GG07_VH x GG01_VL) (antibody, IgG1, V domains shown, one-armed hu IgG1 PG-LALA, VH/VL-crossed Fab on Fc hole plus empty Fc knob; from supernatant) VH: QVQLVQSGSELKKPGASVKVSCKASGYTFTNYGMNWVRQAPGQGLEWMGWINTYTGESTYAQGFTGRFVFSLDTSVSTAYLQISSLKAEDTAVYFCARFARSGDYWGQGTLVTVSS VL: DIVMTQSPLSLPVTPGEPASISCRSSQSLLHSNGITYLYWYLQKPGQSPQLLIYQMSNRASGVPDRFSGSGSGTDFTLKISRVEAEDVGVYYCAQNLEIPRTFGQGTKLEIK | 0.00411
Monovalent EpCAM (GG01_VH x GG02_VL) (antibody, IgG1, V domains shown, one-armed hu IgG1 PG-LALA, VH/VL-crossed Fab on Fc hole plus empty Fc knob; from supernatant) VH: QVQLVQSGSELKKPGASVKVSCKASGYTFTNYGMNWVRQAPGQGLEWMGWINTYTGESTYAQGFTGRFVFSLDTSVSTAYLQISSLKAEDTAVYFCARFAIKGDYWGQGTLVTVSS VL: DIVMTQSPDSLAVSLGERATINCKSSQSLLHSNGITYLYWYQQKPGQPPKLLIYQASTRESGVPDRFSGSGSGTDFTLTISSLQAEDVAVYYCAQNLEIPRTFGQGTKLEIK | 0.00494
Monovalent EpCAM (GG06_VH x GG02_VL) (antibody, IgG1, V domains shown, one-armed hu IgG1 PG-LALA, VH/VL-crossed Fab on Fc hole plus empty Fc knob; from supernatant) VH: QVQLVQSGSELKKPGASVKVSCKASGYTFTNYGMNWVRQAPGQGLEWMGWINTYTGQSTYAQGFTGRFVFSLDTSVSTAYLQISSLKAEDTAVYFCARFAIKGDYWGQGTLVTVSS VL: DIVMTQSPDSLAVSLGERATINCKSSQSLLHSNGITYLYWYQQKPGQPPKLLIYQASTRESGVPDRFSGSGSGTDFTLTISSLQAEDVAVYYCAQNLEIPRTFGQGTKLEIK | 0.00382
Monovalent EpCAM (GG07_VH x GG02_VL) (antibody, IgG1, V domains shown, one-armed hu IgG1 PG-LALA, VH/VL-crossed Fab on Fc hole plus empty Fc knob; from supernatant) VH: QVQLVQSGSELKKPGASVKVSCKASGYTFTNYGMNWVRQAPGQGLEWMGWINTYTGESTYAQGFTGRFVFSLDTSVSTAYLQISSLKAEDTAVYFCARFARSGDYWGQGTLVTVSS VL: DIVMTQSPDSLAVSLGERATINCKSSQSLLHSNGITYLYWYQQKPGQPPKLLIYQASTRESGVPDRFSGSGSGTDFTLTISSLQAEDVAVYYCAQNLEIPRTFGQGTKLEIK | 0.00528
Monovalent EpCAM (GG01_VH x GG03_VL) (antibody, IgG1, V domains shown, one-armed hu IgG1 PG-LALA, VH/VL-crossed Fab on Fc hole plus empty Fc knob; from supernatant) VH: QVQLVQSGSELKKPGASVKVSCKASGYTFTNYGMNWVRQAPGQGLEWMGWINTYTGESTYAQGFTGRFVFSLDTSVSTAYLQISSLKAEDTAVYFCARFAIKGDYWGQGTLVTVSS VL: EIVLTQSPGTLSLSPGERATLSCRASQSLLHSNGITYLYWYQQKPGQAPRLLIYQMSNRATGIPDRFSGSGSGTDFTLTISRLEPEDFAVYYCAQNLEIPRTFGQGTKLEIK | 0.00292
Monovalent EpCAM (GG06_VH x GG03_VL) (antibody, IgG1, V domains shown, one-armed hu IgG1 PG-LALA, VH/VL-crossed Fab on Fc hole plus empty Fc knob; from supernatant) VH: QVQLVQSGSELKKPGASVKVSCKASGYTFTNYGMNWVRQAPGQGLEWMGWINTYTGQSTYAQGFTGRFVFSLDTSVSTAYLQISSLKAEDTAVYFCARFAIKGDYWGQGTLVTVSS VL: EIVLTQSPGTLSLSPGERATLSCRASQSLLHSNGITYLYWYQQKPGQAPRLLIYQMSNRATGIPDRFSGSGSGTDFTLTISRLEPEDFAVYYCAQNLEIPRTFGQGTKLEIK | 0.00286
Monovalent EpCAM (GG07_VH x GG03_VL) (antibody, IgG1, V domains shown, one-armed hu IgG1 PG-LALA, VH/VL-crossed Fab on Fc hole plus empty Fc knob; from supernatant) VH: QVQLVQSGSELKKPGASVKVSCKASGYTFTNYGMNWVRQAPGQGLEWMGWINTYTGESTYAQGFTGRFVFSLDTSVSTAYLQISSLKAEDTAVYFCARFARSGDYWGQGTLVTVSS VL: EIVLTQSPGTLSLSPGERATLSCRASQSLLHSNGITYLYWYQQKPGQAPRLLIYQMSNRATGIPDRFSGSGSGTDFTLTISRLEPEDFAVYYCAQNLEIPRTFGQGTKLEIK | 0.00285
Monovalent EpCAM (GG01_VH x GG04_VL) (antibody, IgG1, V domains shown, one-armed hu IgG1 PG-LALA, VH/VL-crossed Fab on Fc hole plus empty Fc knob; from supernatant) VH: QVQLVQSGSELKKPGASVKVSCKASGYTFTNYGMNWVRQAPGQGLEWMGWINTYTGESTYAQGFTGRFVFSLDTSVSTAYLQISSLKAEDTAVYFCARFAIKGDYWGQGTLVTVSS VL: DIQMTQSPSSLSASVGDRVTITCRASQSISSYLYWYQQKPGKAPKLLIYQASSLQSGVPSRFSGSGSGTDFTLTISSLQPEDFATYYCAQNLEIPRTFGQGTKLEIK | 0.00272
Monovalent EpCAM (GG06_VH x GG04_VL) (antibody, IgG1, V domains shown, one-armed hu IgG1 PG-LALA, VH/VL-crossed Fab on Fc hole plus empty Fc knob; from supernatant) VH: QVQLVQSGSELKKPGASVKVSCKASGYTFTNYGMNWVRQAPGQGLEWMGWINTYTGQSTYAQGFTGRFVFSLDTSVSTAYLQISSLKAEDTAVYFCARFAIKGDYWGQGTLVTVSS VL: DIQMTQSPSSLSASVGDRVTITCRASQSISSYLYWYQQKPGKAPKLLIYQASSLQSGVPSRFSGSGSGTDFTLTISSLQPEDFATYYCAQNLEIPRTFGQGTKLEIK | 0.00434
